Data as given in patent US20200283537A1 (published 2020).

B1: BaCa-1 (Bispecific-Anchored Cytotoxicity-Activator-1; farletuzumab IgG1 with a lexatumumab scFv at the C-terminus of the heavy chain) (bispecific antibody)
heavy: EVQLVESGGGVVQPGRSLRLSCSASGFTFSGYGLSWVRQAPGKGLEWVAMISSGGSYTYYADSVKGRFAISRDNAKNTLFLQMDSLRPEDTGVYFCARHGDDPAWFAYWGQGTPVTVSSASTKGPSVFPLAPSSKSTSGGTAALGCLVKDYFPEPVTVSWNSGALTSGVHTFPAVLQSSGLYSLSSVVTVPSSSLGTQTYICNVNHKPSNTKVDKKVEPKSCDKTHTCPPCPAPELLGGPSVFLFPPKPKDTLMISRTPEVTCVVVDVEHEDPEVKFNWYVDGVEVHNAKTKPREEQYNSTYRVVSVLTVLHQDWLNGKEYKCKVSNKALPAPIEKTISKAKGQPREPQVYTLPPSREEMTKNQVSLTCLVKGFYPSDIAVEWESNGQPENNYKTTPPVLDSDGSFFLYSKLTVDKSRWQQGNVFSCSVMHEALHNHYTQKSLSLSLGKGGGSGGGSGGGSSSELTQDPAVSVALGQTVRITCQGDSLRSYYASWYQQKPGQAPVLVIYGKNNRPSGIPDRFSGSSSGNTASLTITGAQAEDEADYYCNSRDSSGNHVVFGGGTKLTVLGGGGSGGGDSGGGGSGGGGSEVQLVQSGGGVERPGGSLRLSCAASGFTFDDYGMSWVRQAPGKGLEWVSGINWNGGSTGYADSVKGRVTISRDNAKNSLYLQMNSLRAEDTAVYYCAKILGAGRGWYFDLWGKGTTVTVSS
light: DIQLTQSPSSLSASVGDRVTITCSVSSSISSNNLHWYQQKPGKAPKPWIYGTSNLASGVPSRFSGSGSGTDYTFTISSLQPEDIATYYCQQWSSYPYMYTFGQGTKVEIKRTVAAPSVFIFPPSDEQLKSGTASVVCLLNNFYPREAKVQWKVDNALQSGNSQESVTEQDSKDSTYSLSSTLTLSKADYEKHKVYACEVTHQGLSSPVTKSFNRGEC
B2: Lexatumumab (anti-TRAIL-R2/DR5 antibody), recombinant human IgG1 (antibody, V domains shown)
VH: EVQLVQSGGGVERPGGSLRLSCAASGFTFDDYGMSWVRQAPGKGLEWVSGINWNGGSTGYADSVKGRVTISRDNAKNSLYLQMNSLRAEDTAVYYCAKILGAGRGWYFDLWGKGTTVTVSS
VL: SSELTQDPAVSVALGQTVRITCQGDSLRSYYASWYQQKPGQAPVLVIYGKNNRPSGIPDRFSGSSSGNTASLTITGAQAEDEADYYCNSRDSSGNHVVFGGGTKLTVLG
B3: Farletuzumab (humanized anti-FOLR1 monoclonal antibody), recombinant human IgG1 (antibody, V domains shown)
VH: EVQLVESGGGVVQPGRSLRLSCSASGFTFSGYGLSWVRQAPGKGLEWVAMISSGGSYTYYADSVKGRFAISRDNAKNTLFLQMDSLRPEDTGVYFCARHGDDPAWFAYWGQGTPVTVSS
VL: DIQLTQSPSSLSASVGDRVTITCSVSSSISSNNLHWYQQKPGKAPKPWIYGTSNLASGVPSRFSGSGSGTDYTFTISSLQPEDIATYYCQQWSSYPYMYTFGQGTKVEIKR
B4: BaCa-2 (knob/hole single-chain-linked bispecific, monovalent anti-FOLR1 and anti-DR5) (bispecific antibody)
chain 1: not shown
chain 2: SSELTQDPAVSVALGQTVRITCQGDSLRSYYASWYQQKPGQAPVLVIYGKNNRPSGIPDRFSGSSSGNTASLTITGAQAEDEADYYCNSRDSSGNHVVFGGGTKLTVLRTVAAPSVFIFPPSDEQLKSGTASVVCLLNNFYPREAKVQWKVDNALQSGNSQESVTEQDSKDSTYSLSSTLTLSKADYEKHKVYACEVTHQGLSSPVTKSFNRGECGGGGSGGGGSGGGGSGGGGSGGGGSGGGGSGGGGSGGGGSGGGGSGGGGSEVQLVQSGGGVERPGGSLRLSCAASGFTFDDYGMSWVRQAPGKGLEWVSGINWNGGSTGYADSVKGRVTISRDNAKNSLYLQMNSLRAEDTAVYYCAKILGAGRGWYFDLWGKGTTVTVSSASTKGPSVFPLAPSSKSTSGGTAALGCLVKDYFPEPVTVSWNSGALTSGVHTFPAVLQSSGLYSLSSVVTVPSSSLGTQTYICNVNHKPSNTKVDKRVEPKSCDKTHTCPPCPAPELLGGPSVFLFPPKPKDTLMISRTPEVTCVVVDVSHEDPEVKFNWYVDGVEVHNAKTKPREEQYNSTYRVVSVLTVLHQDWLNGKEYKCKVSNKALPAPIEKTISKAKGQPREPQVYTLPPSREEMTKNQVSLTCLVKGFYPSDIAVEWESNGQPENNYKTTPPVLDSDGSFFLTSKLTVDKSRWQQGNVFSCSVMHEALHNRFTQKSLSLSPG
B5: BaCa-3 (dual-variable-domain bispecific, lexatumumab variable domains outer, farletuzumab inner) (bispecific antibody)
heavy: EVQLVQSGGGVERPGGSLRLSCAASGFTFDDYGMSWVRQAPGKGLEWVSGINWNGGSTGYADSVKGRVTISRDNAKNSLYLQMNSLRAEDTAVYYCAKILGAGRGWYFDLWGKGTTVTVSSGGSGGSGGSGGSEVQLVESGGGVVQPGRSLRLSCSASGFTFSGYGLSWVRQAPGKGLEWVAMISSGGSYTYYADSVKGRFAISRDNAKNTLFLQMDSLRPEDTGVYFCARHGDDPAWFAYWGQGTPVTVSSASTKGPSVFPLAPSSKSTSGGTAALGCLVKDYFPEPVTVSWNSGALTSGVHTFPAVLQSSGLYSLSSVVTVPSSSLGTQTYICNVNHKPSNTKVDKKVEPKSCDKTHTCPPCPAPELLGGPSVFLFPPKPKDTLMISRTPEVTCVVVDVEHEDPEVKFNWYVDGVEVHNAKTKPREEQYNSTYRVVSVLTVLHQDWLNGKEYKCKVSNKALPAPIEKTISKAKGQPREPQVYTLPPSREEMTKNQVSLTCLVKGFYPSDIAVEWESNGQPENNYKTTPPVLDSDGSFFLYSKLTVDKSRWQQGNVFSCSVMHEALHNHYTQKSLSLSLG
light: SSELTQDPAVSVALGQTVRITCQGDSLRSYYASWYQQKPGQAPVLVIYGKNNRPSGIPDRFSGSSSGNTASLTITGAQAEDEADYYCNSRDSSGNHVVFGGGTKLTVLGGSGGSGGSGGSDIQLTQSPSSLSASVGDRVTITCSVSSSISSNNLHWYQQKPGKAPKPWIYGTSNLASGVPSRFSGSGSGTDYTFTISSLQPEDIATYYCQQWSSYPYMYTFGQGTKVEIKRTVAAPSVFIFPPSDEQLKSGTASVVCLLNNFYPREAKVQWKVDNALQSGNSQESVTEQDSKDSTYSLSSTLTLSKADYEKHKVYACEVTHQGLSSPVTKSFNRGEC
B6: BaCa antibody with LALA-Fc (L234A-L235A) mutations in the CH2 domain (bispecific antibody)
heavy: EVQLVESGGGVVQPGRSLRLSCSASGFTFSGYGLSWVRQAPGKGLEWVAMISSGGSYTYYADSVKGRFAISRDNAKNTLFLQMDSLRPEDTGVYFCARHGDDPAWFAYWGQGTPVTVSSASTKGPSVFPLAPSSKSTSGGTAALGCLVKDYFPEPVTVSWNSGALTSGVHTFPAVLQSSGLYSLSSVVTVPSSSLGTQTYICNVNHKPSNTKVDKKVEPKSCDKTHTCPPCPAPEAAGGPSVFLFPPKPKDTLMISRTPEVTCVVVDVEHEDPEVKFNWYVDGVEVHNAKTKPREEQYNSTYRVVSVLTVLHQDWLNGKEYKCKVSNKALPAPIEKTISKAKGQPREPQVYTLPPSREEMTKNQVSLTCLVKGFYPSDIAVEWESNGQPENNYKTTPPVLDSDGSFFLYSKLTVDKSRWQQGNVFSCSVMHEALHNHYTQKSLSLSLGKGGGSGGGSGGGSSSELTQDPAVSVALGQTVRITCQGDSLRSYYASWYQQKPGQAPVLVIYGKNNRPSGIPDRFSGSSSGNTASLTITGAQAEDEADYYCNSRDSSGNHVVFGGGTKLTVLGGGGSGGGDSGGGGSGGGGSEVQLVQSGGGVERPGGSLRLSCAASGFTFDDYGMSWVRQAPGKGLEWVSGINWNGGSTGYADSVKGRVTISRDNAKNSLYLQMNSLRAEDTAVYYCAKILGAGRGWYFDLWGKGTTVTVSS
light: B1 light

Legend:
[1] = target: T1, Recombinant FOLR1 (rFOLR1), extracellular domain of folate receptor alpha-1 fused to IgG4-Fc; assay: BLI
[2] = target: T2, Recombinant DR5 (rDR5), extracellular domain of DR5/TRAIL-R2 fused to IgG4-Fc; assay: BLI
[3] = target: T1, Recombinant FOLR1 (rFOLR1), …; assay: BLI; remark: listed apart in the source
[4] = target: T2, Recombinant DR5 (rDR5), extracellular …; assay: BLI; remark: listed apart in the source
[5] = target: T1, Recombinant FOLR1 (rFOLR1), …; assay: ELISA
[6] = target: T2, Recombinant DR5 (rDR5), extracellular …; assay: ELISA
[7] = target: T1, Recombinant FOLR1 (rFOLR1), …; assay: ELISA; remark: listed apart in the source
[8] = target: T2, Recombinant DR5 (rDR5), extracellular …; assay: ELISA; remark: listed apart in the source
[9] = target: T2, Recombinant DR5 (rDR5), extracellular …; assay: BLI; remark: listed apart in the source
[10] = target: T2, Recombinant DR5 (rDR5), extracellular …; assay: BLI; remark: listed apart in the source
[11] = target: T2, Recombinant DR5 (rDR5), extracellular …; assay: ELISA; remark: listed apart in the source
[12] = target: T2, Recombinant DR5 (rDR5), extracellular …; assay: ELISA; remark: listed apart in the source

Binder | Kd [1] | Kd [3] | Kd [5] | Kd [6] | Kd [7] | Kd [8] | also measured
B1 | 12 nM | 12 nM | 0.61 nM | 0.73 nM | 1.21 nM | 1.41 nM | Kd [2]: 3.1 nM; Kd [4]: 3.1 nM
B2 |  |  |  |  |  |  | Kd [9]: 3.3 nM; Kd [10]: 3.3 nM; Kd [11]: 1.26 nM; Kd [12]: 0.518 nM
B3 | 15 nM | 15 nM | 0.42 nM |  | 0.985 nM |  | 
B4 |  |  | 0.0887 nM | 1.08 nM |  |  | 
B5 |  |  | 0.392 nM | 0.538 nM |  |  | 
B6 |  |  |  |  | 0.904 nM | 1.65 nM | 
